Data on two substances can be found in paper PMC5478280.

In test [1] the target is Csy complex (type I-F crRNA-guided surveillance complex), wild type (P. aeruginosa (strain PA14)) (UniProt Q02ML9). Put plainly: cryo-EM structure.
Test [2] has as its target Csy complex with Cas7f K85A (P. aeruginosa (strain PA14)) (UniProt Q02ML9). The experiment in a line: SPR. (In general: In SPR one partner is held on a chip, and binding of the other changes the refractive index at the surface.)

“anti-CRISPR protein AcrF2 (natural protein)”: in test [1], the stoichiometry N came to 1. In test [2], “anti-CRISPR protein AcrF1 (natural protein)” had a kd1 (dissociation rate) of 0.00031 s⁻¹. For the same substance, the stoichiometry N in test [1] was 2.

One may read the stoichiometry N as a count of units in the complex or per binding partner.
